Patent US11168306B2, “Phage wrapping” (priority 2014, dated 2021)
“Also recorded” adds a separate entry of the source.

Target: T1, PSMA on LNCaP cells (Homo sapiens, UniProt Q04609)
T1 construct: specific recognition of PSMA on the surface of LNCaP cells; endogenous in cells; host or cells: LNCaP (also LNCaP CSS); glutaraldehyde-fixed on the plate
Assay: Cell-based phage ELISA, recognition of cell surface PSMA
Settings: PEGylated ligands on phage wrapped with K14-Cys
Description: The cell-based ELISA was performed as previously described by Watanabe et. al. with several modifications. See e.g., Watanabe, K.; et al., Clin. Biochem. 2001, 34, 291-295. Cells were detached with Trypsin-EDTA, resuspended in PBS, and then collected by centrifuging at 1200 rpm for 5 min. The cells were further washed with PBS and then concentrated as in the previous step. The concentration of the cells was adjusted to 4.5×10^6 cells/mL in PBS using a hemocytometer, and 100 μL was aliquoted to specific wells of a 96-well microtiter (Nunc Maxisorp). Next, 50 μL of 0.15% of glutaraldehyde in PBS was added to the wells at 4° C., and the solution was gently mixed by pipetting. The ELISA plate was then centrifuged at 1200 rpm for 10 min at 4° C., followed by overnight incubation at 4° C. The cell solution was gently removed, and the wells were blocked with 200 μL/well of blocking buffer containing 100 mM glycine, 1% gelatin and 0.1% w/v BSA (bovine serum albumin) in PBS. The plate was incubated overnight (˜20-22 h) at room temperature.
Separately, phage wrapped with PEG and PEGylated ligands were prepared. Phage (10 nM in 100 μL) and 1 μL of K14-alkyne (525 μM in water) were thoroughly mixed by pipetting ˜25 times. For phage wrapped with PEGylated ligands, phage were mixed with 0.75 μL of K14-Cys (525 μM in water). For mixed wrapping on phage surface, 0.5 μL of K14-alkyne was pre-mixed with 0.75 μL of K14-Cys, and then mixed with 100 μL of 10 nM phage. The solution was shaken at room temperature for 15 min on an orbital shaker. Next, 2 μL of PEGylated ligand (625 μM in water) was added to the appropriate wells. For the dual ligand combinations, the PEGylated ligands were pre-mixed in the desired ratio (2:1 for example), and then 2 μL of the mixture was added to the appropriate wells. The solutions were gently mixed by pipetting, and incubated overnight at 4° C.
Next, the click reaction was performed, as previously described, but with the following modifications.^1,2 Triethylammonium acetate was added to a final concentration of 50 mM, followed by the addition of 1.5 μL of 1 mM azide-functionalized PEG. The solutions were mixed by pipetting. Next, ascorbic acid was added to a final concentration of 1 mM and the solutions were mixed by gently pipetting. Next, copper sulfate was added to a final concentration of 1.5 mM, followed by pipetting to mix the solutions. Water was added to the other wells to maintain a consistent phage concentration. The plate was incubated at room temperature for 30 min.
The wells on the ELISA plate were then incubated with the phage samples. The blocking buffer was removed and the wells were gently washed two times with PBS. Next, the phage solution was added to the respective wells and incubated for 45 min. The phage solution was removed, and the wells were washed three times with 300 μL/well of wash buffer PT (0.05% TWEEN-20 in PBS), once with PBS, and then incubated with horseradish-peroxidase-conjugated anti-M13 antibody (100 μL/well, 1:5000 dilution in PBS) for 40 min. The wells were washed three times with PT and once with PBS. The plate was then developed by incubating with HRP substrate solution (100 μL/well; 1 mg/mL o-phenylenediamine dihydrochloride and 0.02% w/v H2O2) in citric acid buffer (50 mM citric acid, 50 mM Na2HPO4, pH 5.0). The HRP activity was measured spectrophotometrically at 450 nm using a microtiter plate reader (Bio-Tek). The absorbance at 630 nm was subtracted from the absorbance at 450 nm to eliminate background.

T1 sequence (Q04609 whole entry): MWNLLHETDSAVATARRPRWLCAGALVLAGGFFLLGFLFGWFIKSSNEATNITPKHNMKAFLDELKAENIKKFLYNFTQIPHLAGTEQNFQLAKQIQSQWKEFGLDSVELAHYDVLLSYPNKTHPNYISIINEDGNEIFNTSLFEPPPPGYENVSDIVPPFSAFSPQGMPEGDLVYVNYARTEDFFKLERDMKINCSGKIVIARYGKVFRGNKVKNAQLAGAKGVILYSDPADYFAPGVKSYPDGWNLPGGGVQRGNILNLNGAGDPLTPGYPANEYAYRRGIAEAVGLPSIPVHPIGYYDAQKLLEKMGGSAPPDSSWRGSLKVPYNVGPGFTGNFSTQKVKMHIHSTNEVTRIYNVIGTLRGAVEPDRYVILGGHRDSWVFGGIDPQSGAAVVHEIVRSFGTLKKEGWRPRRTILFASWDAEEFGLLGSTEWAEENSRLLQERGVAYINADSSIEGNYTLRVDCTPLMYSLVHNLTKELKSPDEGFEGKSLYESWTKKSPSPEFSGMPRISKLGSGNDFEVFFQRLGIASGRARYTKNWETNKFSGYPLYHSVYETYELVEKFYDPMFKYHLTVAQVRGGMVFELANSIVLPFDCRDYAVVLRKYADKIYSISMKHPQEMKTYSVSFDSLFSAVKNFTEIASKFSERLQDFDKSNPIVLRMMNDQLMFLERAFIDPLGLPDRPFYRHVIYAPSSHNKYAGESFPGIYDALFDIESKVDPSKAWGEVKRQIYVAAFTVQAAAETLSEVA

Molecule	relative binding affinity for cell surface PSMA on LNCaP cells	relative binding affinity for cell surface PSMA on LNCaP cells (listed as P100NSP-2+P100NSP-1)
P100NSP-2: PEG100, non-specific attachment to ligand 2; bioconjugated to phage wrapped with K14-Cys (conjugate) peptide 1: SECVEVFQNSCDW peptide 2: KKKKKKKKKKKKKKC AEGDDPAKAAFNSLQASATEYIGYAWAMVVVIVGATIGIKLFKKFTSKAS	higher affinity for LNCaP cells compared to P100NSP-1	–
P100SP-P4-2+P100SP-P4-1: dual PEGylated ligand combination with PEG4 linker, specific attachment, 2:1 ratio, on phage (conjugate) peptide 1: SECVEVFQNSCDW peptide 2: CALCEFLG peptide 3: KKKKKKKKKKKKKKC AEGDDPAKAAFNSLQASATEYIGYAWAMVVVIVGATIGIKLFKKFTSKAS	significant increase in binding affinity	–
P100NSP-P4-2+P100NSP-P4-1: dual PEGylated ligand combination with PEG4 linker, non-specific attachment, on phage (conjugate) peptide 1: SECVEVFQNSCDW peptide 2: CALCEFLG peptide 3: KKKKKKKKKKKKKKC AEGDDPAKAAFNSLQASATEYIGYAWAMVVVIVGATIGIKLFKKFTSKAS	drop in affinity; also recorded: affinity equivalent to P100NSP-P4-2	–
P100SP-2: PEG100, specific attachment to ligand 2 (conjugate) peptide 1: SECVEVFQNSCDW peptide 2: KKKKKKKKKKKKKKC AEGDDPAKAAFNSLQASATEYIGYAWAMVVVIVGATIGIKLFKKFTSKAS	higher binding affinity for cell surface PSMA than P100NSP-2	–
P100SP-P4-2: PEG100, specific attachment, PEG4 linker, ligand 2 (conjugate) peptide 1: SECVEVFQNSCDW peptide 2: KKKKKKKKKKKKKKC AEGDDPAKAAFNSLQASATEYIGYAWAMVVVIVGATIGIKLFKKFTSKAS	most effective PEGylated ligand for recognition of PSMA on the cell surface	–
2:1 mixture of P100NSP-2 and P100NSP-1: dual PEGylated ligand combination wrapped on phage (conjugate) peptide 1: SECVEVFQNSCDW peptide 2: CALCEFLG peptide 3: KKKKKKKKKKKKKKC AEGDDPAKAAFNSLQASATEYIGYAWAMVVVIVGATIGIKLFKKFTSKAS	maximize the recognition of PSMA on LNCaP cells	modest improvement
